The data set deals with the molecule itself. In words: disulfide-linked dimer fraction in lipid vesicles by SDS-PAGE.

Broadly, the stoichiometry N is the number of molecules, sites or subunits per partner or assembly.

Take SSPGTPASPCSLSGIIIGVTVAAVVLIVAVFVSKSLLWKK [DR5-L TM peptide (synthetic 40-residue DR5-L transmembrane domain)]: the “stoichiometry N” value stood at 2.

Values taken from article PMC5394796 (Journal of molecular biology, 2016).
